US6730828B1, “Isolated nucleic acids encoding a wheat glutathione transferase, plants transformed therewith and methods of use thereof” (Aventis Agriculture Limited, priority 1997, dated 2004)

What was measured:
[1] = GST activity toward herbicide fluorodifen (HPLC-based assay); assay type: biochemical; conditions: recombinant wheat GST expressed in E. coli, affinity purified; ± standard error
Description: (§1) The purified isoenzymes were assayed for GST activity toward herbicides using the HPLC-based assays described by Edwards R. and Cole D. J. (Pesticide Biochemistry and Physiology Vol. 54, pp96-104 (1996)) and the results are presented in Table 2. […] These isoenzymes had additional activities as glutathione peroxidases able to reduce linoleic acid hydroperoxide, a major reaction product formed during membrane peroxidation in plants (Williamson and Beverly. J. Cereal Sci. 8, 1988, 155-163).
(§2) To assay the recombinant fusion proteins for GST activity, the E. coli were grown in the presence of IPTG and then pelleted by centrifugation. The bacteria were then lysed by sonication and the protein precipitated using 80% ammonium sulphate. After resuspension and desalting, GSTs were purified by affinity chromatography. The WIC 3 fusion protein was purified using sulphobromophthalein-S-glutathione affinity chromatography (Mozer et al. Biochem. 22, 1983, 1068-1072) while the other WIC fusion proteins were purified using glutathione-agarose (Mannervik and Guthenberg. Methods Enzymol. 77 1981, 231-235).The purified enzymes were then assayed for GST activities toward herbicides (Table 3) and GST activities toward non-herbicide substrates and glutathione peroxidase activities toward organic hydroperoxides (Table 4).
(§3) A polyclonal antiserum was raised in a rabbit to a mixture of TaGST1-2 and TaGST1-3. When tested against crude extracts from safener-treated wheat shoots the antiserum recognised both the 25 kDa TaGST1 subunit and the 26 kDa safener-inducible TaGST2 and TaGST3 subunits. The antiserum was then used in conjunction with the antiserum raised to TaGST1-1 to immuno screen the cDNA library prepared from fenchlorazole ethyl treated wheat shoots as described in example 1. Duplicate lifts were taken from the plated out library and the first blot screened with the antiserum raised against TaGST1-2 and TaGST1-3. The second blot was screened with the antiserum raised to TaGST1-1. Five plaques were identified from the first blot which were absent from the second blot corresponding to cDNAs encoding TaGST2 or TaGST3 like polypeptides and theses clones were purified and the respective plasmids sequenced. […] The other three clones ICC. ICP and ICV had identical DNA sequences (SEQ ID No. 17) and predicted amino acid sequence (SEQ ID No. 18). GST ICJ was sub-cloned into the pET 11a vector after using PCR to introduce a Nde 1 restriction site into the translation start site, using the primer 5′ AGGTAGTTACATATGGCCGGAGGA 3′ (SEQ ID No. 19) in the amplification. following sub-cloning, the sequence of GST ICJ was re-checked to ensure no PCR induced errors had been introduced. The recombinant GST ICJ was then expressed in E. coli and purified by S-hexylglutathione affinity chromatography. The purified GST ICJ was assayed for activities as a GST (Table 3) and as a glutathione peroxidase (Table 4). […] GST ICV was finally expressed as the respective beta-galactosidase fusion protein using the Bluescript plasmid and assayed for GST activity (Table 3 ) and glutathione peroxidase activity (Table 4) in crude bacterial lysates. The specific activity of GST ICV toward these substrates was then calculated by I) subtracting the low levels of GST and GPOX activity present due the endogenous activities in the E. coli and ii) determining the proportion of protein in the lysate present as recombinant GST ICV from SDS-PAGE analysis, by densitometry analysis of polypeptides stained with Coomassie blue.

[2] = GST activity toward crotonaldehyde; assay type: biochemical; conditions: recombinant wheat GST, affinity purified; ± standard error
Description: as §2

[3] = GST activity toward benzyl isothiocyanate; assay type: biochemical; conditions: recombinant wheat GST, affinity purified; ± standard error
Description: as §2

[4] = Glutathione peroxidase activity toward cumene hydroperoxide; assay type: biochemical; conditions: recombinant wheat GST, affinity purified; ± standard error (n = 3)
Description: as §2, §3

[5] = GST activity toward herbicide metolachlor (HPLC-based assay); assay type: biochemical; conditions: recombinant wheat GST expressed in E. coli, affinity purified; ± standard error
Description: as §1, §2, §3

[6] = GST activity toward herbicide fenoxaprop-ethyl (HPLC-based assay); assay type: biochemical; conditions: recombinant wheat GST expressed in E. coli, affinity purified; ± standard error
Description: as §1, §2, §3

GST activity toward CDNB = assay type: biochemical; conditions: recombinant wheat GST expressed in E. coli, affinity purified
Description: as §1
To confirm that TaGST1 encoded a GST, it was expressed as a fusion protein with beta-galactosidase using the pBluescript plasmid in E. coli strain SOLR. TaGST1 clones were inoculated into LB liquid medium and were grown overnight at 37/C on all orbital shaker in the presence of IPTG. Bacteria were then pelleted by centrifugation, lysed by sonication and assayed for GST activity toward CDNB and analysed by SDS-PAGE and Western blotting using the anti-TaGSTI-I serum. With all six TaGST1 clones, GST activity toward CDNB could be determined in the crude extracts in the range 30-50 nkat/mg crude lysate.
as §2
as §3, with “The specific activity of GST ICV toward these substrates was then calculated by I) subtracting the low levels of GST and GPOX activity present due the endogenous activities in the E. coli and ii) determining the proportion of protein in the lysate present as recombinant GST ICV from SDS-PAGE analysis, by densitometry analysis of polypeptides stained with Coomassie blue.” left out

[7] = molecular target: the molecule itself; experiment: subunit composition of purified isoenzymes (anion exchange, reversed-phase HPLC, SDS-PAGE)
Description: The component polypeptides in the active fractions were then analysed by silver staining after resolution by sodium dodecyl sulphate polyacrylamide gel electrophoresis (SDS-PAGE). It was concluded that in fenchlorazole-ethyl-treated wheat the polar GSTs were composed of 25 kDa and 26 kDa polypeptides, while the hydrophobic fraction contained 25 kDa, 26 kDa and 24 kDa polypeptides. Further analysis by reversed-phase HPLC confirmed the subunit compositions (FIG. 2). Based on the combined analyses by Q-sepharose, HPLC and SDS-PAGE these GST polypeptides were named as described in Table 1, which also contains details of how these subunits associate together to form the active dimers found in plants and the relative abundance of these subunits in extracts from unsafened and fenchlorazole-ethyl treated (safened) plants.

B1: WIC 5: recombinant type I wheat GST, SEQ ID No. 9, amino acid SEQ ID No. 10 (protein)
chain: MAPIKLYGMMLSANVTRVTTLLNELGLEFDFVDVDLRTGAHKHPDFLKLNPFGQIPALQDGDEVVFESRAINRYIATKYGASLLPTPSAKLEAWLEVESHHFYPPARTLVYELVIKPMLGAPTDAAEVDKNAADLAKLLDVYEAHLAAGNKYLAGDAFPLADANHMSYLFMLTKSPKADLVASRPHVKAWWEEISARPAWAKTVASIPLPPAV
modifications: Triticum aestivum L.
For B1, the “GST activity toward fluorodifen” value [1] was 0.030 ± 0.002 nkat.mg^−1, the “GST activity toward crotonaldehyde” value [2] was 4.5 ± 0.5 nkat.mg^−1 and the “GST activity toward benzyl isothiocyanate” value [3] was 9.4 ± 2.0 nkat.mg^−1. The “Glutathione peroxidase activity toward cumene hydroperoxide” value [4] was 1.3 ± 0.2 absorbance change at 340 nm.mg^−1, the “GST activity toward metolachlor” value [5] was 0.040 ± 0.004 nkat.mg^−1 and the “GST activity toward fenoxaprop-ethyl” value [6] was 0.067 ± 0.003 nkat.mg^−1. For the same molecule, the “GST activity toward CDNB” value (GST activity toward CDNB) was 174 nkat.mg^−1.

B2: WIC 2: recombinant type I wheat GST, SEQ ID No. 5, amino acid SEQ ID No. 6 (protein)
chain: MAPAVKVYGWAVSPFVARPLLCLEEAGVEYELVSMSRAAGDHRQPDFLARNPFGQVPVLEDGDLTLFESRAIARHVLRKHKPELLGCGSPEAEAMVDVWLEVEAHQYNPAASAIVVQCIILPLLGGARDQAVVDENVAKLKKVLEVYEARLSASRYLAGDDISLADLSHFPFTRYFMETEYAPLVAELPHVNAWWEGLKARPAARKVTELMPPDLGLGKKAE
modifications: Triticum aestivum L.
For B2, the “GST activity toward fluorodifen” value [1] was 0.096 ± 0.002 nkat.mg^−1, the “GST activity toward crotonaldehyde” value [2] was 5.5 ± 1.3 nkat.mg^−1 and the “GST activity toward benzyl isothiocyanate” value [3] was 33.3 ± 4.5 nkat.mg^−1. The “Glutathione peroxidase activity toward cumene hydroperoxide” value [4] was 28.2 ± 1.7 absorbance change at 340 nm.mg^−1, the “GST activity toward metolachlor” value [5] was 0.512 ± 0.04 nkat.mg^−1 and the “GST activity toward fenoxaprop-ethyl” value [6] was 0.085 ± 0.002 nkat.mg^−1. The “GST activity toward CDNB” value (GST activity toward CDNB) was 187 nkat.mg^−1.

B3: WIC 3: recombinant type I wheat GST, SEQ ID No. 7, amino acid SEQ ID No. 8; coding sequence identical in WIC 7 and WIC 8 (protein)
chain: MAPVKLYGATLSWNVTRCVAALEEAGVQYEIVPINFGTGEHKSPDHLARNPFGQVPALQDGDLYVFESRAICKYACRKNKPELLKEGDIKESAMVDVWLEVEAHQYTAALSPILFECLIHPMLGGATDQKVIDDNLVKIKNVLAVYEAHLSKSKYLAGDFLSLADLNHVSVTLCLAATPYASLFDAYPHVKAWWTDLLARPSVQKVAALMKP
modifications: Triticum aestivum L.
With B3 the “GST activity toward fluorodifen” value [1] was 0.014 ± 0.006 nkat.mg^−1, the “GST activity toward crotonaldehyde” value [2] was 6.3 ± 0.9 nkat.mg^−1 and the “GST activity toward benzyl isothiocyanate” value [3] was 9.0 ± 0.5 nkat.mg^−1. For the same molecule, the “Glutathione peroxidase activity toward cumene hydroperoxide” value [4] was 1.4 ± 0.3 absorbance change at 340 nm.mg^−1, the “GST activity toward metolachlor” value [5] was 0.053 ± 0.004 nkat.mg^−1 and the “GST activity toward fenoxaprop-ethyl” value [6] was 0.093 ± 0.002 nkat.mg^−1. For the same molecule, the “GST activity toward CDNB” value (GST activity toward CDNB) was 2,519 nkat.mg^−1.

B4: Triticum aestivum GST 1 subunit (25 kDa) (enzyme)
chain: MAGEKGLVLLDFWVSPFGQRVRIALAEKGLPYEYAEEDLMAGKSDRLLRANPVHKKIPVLLHDGRAVNESLIILQYLEEAFPDAPALLPSDPYARAQARFWADYVDKKVYDCGSRLWKLKGEPQAQARAEMLDILKTLDGALGDKPFFGGDKFGFVDAAFAPFTAWFHSYERYGEFSLPEVAPKIAAWAKRCGERESVAKSLYSPDKVYDFIGLLKKKYGIE
notes: Native subunit in wheat shoot extracts; also called TaGST1
B4: binds [7].
